The source of these data is patent publication US20200199241A1 (Chugai, published 2020).

For assay [1], the target named is T1, FcγRIIb (human, UniProt P31994 43-217, limits assumed).
T1 construct: also called FcγIIB; CD32
T1 sequence: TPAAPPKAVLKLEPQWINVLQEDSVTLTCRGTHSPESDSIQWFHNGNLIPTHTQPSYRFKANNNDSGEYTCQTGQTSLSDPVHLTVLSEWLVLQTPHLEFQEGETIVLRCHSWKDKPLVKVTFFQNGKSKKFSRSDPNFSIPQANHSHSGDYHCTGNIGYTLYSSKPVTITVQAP
In words: SPR (Biacore); KD for FcγRIIaR divided by KD for FcγRIIb of the same antibody; column head in Table 52-1.
From the text: (§1) Furthermore, KD(IIaR)/KD(IIb) and KD(IIaH)/KD(IIb) in the table respectively represent the value obtained by dividing the KD value of each variant for FcγRIIaR by the KD value of each variant for FcγRIIb, and the value obtained by dividing the KD value of each variant for FcγRIIaH by the KD value of each variant for FcγRIIb. KD(IIb) of the parent polypeptide/KD(IIb) of the altered polypeptide refers to the value obtained by dividing the KD value of the parent polypeptide for FcγRIIb by the KD value of each variant for FcγRIIb.

Assay [2] concerns the target T1, FcγRIIb. In words: SPR (Biacore), method of Example 14. A general note: In SPR one partner is held on a chip, and binding of the other changes the refractive index at the surface.
A further assay addresses T2, FcγRIIa type R (human, UniProt P12318 36-217).
T2 construct: also called FcγRIIaR; FcγRIIa(R)
T2 chain: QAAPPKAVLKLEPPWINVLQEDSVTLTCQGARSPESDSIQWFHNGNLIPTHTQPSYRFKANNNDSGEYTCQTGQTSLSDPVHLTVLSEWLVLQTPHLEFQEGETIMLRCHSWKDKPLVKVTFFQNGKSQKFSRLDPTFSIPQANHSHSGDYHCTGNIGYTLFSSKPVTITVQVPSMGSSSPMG
In words: SPR (Biacore), method of Example 14.

The target of another assay is T3, FcγRIIIa type V (human, UniProt P08637 17-208, limits assumed).
T3 construct: also called FcγRIIIaV; FcγRIIIa(V)
In words: SPR (Biacore), method of Example 14.

The target of another assay is T4, FcγRIIa type H (human, UniProt P12318 36-217).
T4 construct: also called FcγRIIaH; FcγRIIa(H)
T4 sequence: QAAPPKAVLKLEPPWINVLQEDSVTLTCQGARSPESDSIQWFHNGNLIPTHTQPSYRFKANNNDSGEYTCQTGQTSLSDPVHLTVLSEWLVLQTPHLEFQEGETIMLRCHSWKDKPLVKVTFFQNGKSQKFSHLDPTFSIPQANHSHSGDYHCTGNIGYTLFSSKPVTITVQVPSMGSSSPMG
The experiment in a line: SPR (Biacore), method of Example 14.

The next assay concerns the target T5, FcγRIa (human, UniProt P12314 16-292, limits assumed).
T5 construct: also called CD64
The experiment in a line: SPR (Biacore), method of Example 14.

For assay [3], the target named is T1, FcγRIIb. The experiment in a line: ratio of SPR KD values, parent IL6R-B3/IL6R-L.
From the text: as §1
Assay [4] concerns the target T1, FcγRIIb. In words: SPR (Biacore); KD for FcγRIIaH divided by KD for FcγRIIb of the same antibody; column head in Table 52-1.
From the text: as §1

T3 sequence (P08637 17-208 F176V limits assumed): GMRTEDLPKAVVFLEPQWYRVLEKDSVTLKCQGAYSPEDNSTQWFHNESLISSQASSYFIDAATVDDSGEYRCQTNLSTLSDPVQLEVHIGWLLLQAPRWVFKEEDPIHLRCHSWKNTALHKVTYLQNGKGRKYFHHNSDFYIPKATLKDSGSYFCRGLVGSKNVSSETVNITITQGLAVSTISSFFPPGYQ
T5 sequence (P12314 16-292 limits assumed): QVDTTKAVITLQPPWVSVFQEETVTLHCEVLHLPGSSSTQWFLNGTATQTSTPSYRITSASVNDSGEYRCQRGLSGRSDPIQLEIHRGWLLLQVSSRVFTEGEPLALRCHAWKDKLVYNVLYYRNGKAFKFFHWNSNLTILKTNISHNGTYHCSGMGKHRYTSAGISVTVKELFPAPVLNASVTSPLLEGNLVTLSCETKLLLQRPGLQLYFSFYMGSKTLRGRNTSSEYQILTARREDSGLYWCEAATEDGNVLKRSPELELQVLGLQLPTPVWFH

B1: IL6R-BP191/IL6R-L (antibody, human IgG1)
heavy: QVQLQESGPGLVKPSETLSLTCAVSGHSISHDHAWSWVRQPPGEGLEWIGFISYSGITNYNPSLQGRVTISRDNSKNTLYLQMNSLRAEDTAVYYCARSLARTTAMDYWGEGTLVTVSSASTKGPSVFPLAPSSKSTSGGTAALGCLVKDYFPEPVTVSWNSGALTSGVHTFPAVLQSSGLYSLSSVVTVPSSSLGTQTYICNVNHKPSNTKVDKKVEPKSCDKTHTCPPCPAPDLLGGDSVFLFPPKPKDTLMISRTPEVTCVVVDVSDEDGEVKFNWYVDGVEVHNAKTKPREEQYNSTYRVVSVLTVLHQDWLNGKEYKCKVSNAALPKPIEKTISKAKGQPREPQVYTLPPSRDELTKNQVSLTCLVKGFYPSDIAVEWESNGQPENNYKTTPPVLDSDGSFFLYSKLTVDKSRWQQGNVFSCSVMHEALHNHYTQESLSLSP
light: DIQMTQSPSSLSASVGDRVTITCRASQDISSYLNWYQQKPGKAPKLLIYYTSRLHSGVPSRFSGSGSGTDFTFTISSLQPEDIATYYCQQGNTLPYTFGQGTKVEIK
notes: Anti-IL-6R human IgG1 variant; copies: 2 + 2
Turning to B1, the “KD(IIaR)/KD(IIb)” value in the assay with FcγRIIb [1] was determined as 20.3. For the same molecule, the Kd (usually the free concentration of one partner at which half of the binding sites on the other are occupied at equilibrium, for simple one-to-one binding) amounted to 150 nM with FcγRIIb [2]; 3000 nM with FcγRIIa type R; 49000 nM with FcγRIIIa type V; 27000 nM in the assay with FcγRIIa type H; 4 nM with FcγRIa. In the assay with FcγRIIb [3], the “KD(IIb) of the parent polypeptide/KD(IIb) of altered polypeptide” value (shortened to “KD(IIb) … of altered polypeptide”) was 21.2 fold. Also, in the assay with FcγRIIb [4], the “KD(IIaH)/KD(IIb)” value amounted to 185.

B2: IL6R-BP186/IL6R-L (antibody, human IgG1)
heavy: QVQLQESGPGLVKPSETLSLTCAVSGHSISHDHAWSWVRQPPGEGLEWIGFISYSGITNYNPSLQGRVTISRDNSKNTLYLQMNSLRAEDTAVYYCARSLARTTAMDYWGEGTLVTVSSASTKGPSVFPLAPSSKSTSGGTAALGCLVKDYFPEPVTVSWNSGALTSGVHTFPAVLQSSGLYSLSSVVTVPSSSLGTQTYICNVNHKPSNTKVDKKVEPKSCDKTHTCPPCPAPDYLGDDSVFLFPPKPKDTLMISRTPEVTCVVVDVSHEDGEVKFNWYVDGVEVHNAKTKPREEQDNSTYRVVSVLTVLHQDWLNGKEYKCKVSNAALPKPIEKTISKAKGQPREPQVYTLPPSRDELTKNQVSLTCLVKGFYPSDIAVEWESNGQPENNYKTTPPVLDSDGSFFLYSKLTVDKSRWQQGNVFSCSVMHEALHNHYTQESLSLSP
light: DIQMTQSPSSLSASVGDRVTITCRASQDISSYLNWYQQKPGKAPKLLIYYTSRLHSGVPSRFSGSGSGTDFTFTISSLQPEDIATYYCQQGNTLPYTFGQGTKVEIK
notes: as for B1
B2: the “KD(IIaR)/KD(IIb)” value with FcγRIIb [1] was determined as 15.8. Further, the Kd with FcγRIIb [2] was found to be 61 nM; with FcγRIIa type R, 960 nM; with FcγRIIIa type V it was 49000 nM; in the assay with FcγRIIa type H, 9300 nM; in the assay with FcγRIa, 45 nM. For the same molecule, the “KD(IIb) … of altered polypeptide” value in the assay with FcγRIIb [3] was determined as 50.7 fold. Also, the “KD(IIaH)/KD(IIb)” value in the assay with FcγRIIb [4] amounted to 152.

B3: IL6R-BP184/IL6R-L (antibody, human IgG1)
heavy: QVQLQESGPGLVKPSETLSLTCAVSGHSISHDHAWSWVRQPPGEGLEWIGFISYSGITNYNPSLQGRVTISRDNSKNTLYLQMNSLRAEDTAVYYCARSLARTTAMDYWGEGTLVTVSSASTKGPSVFPLAPSSKSTSGGTAALGCLVKDYFPEPVTVSWNSGALTSGVHTFPAVLQSSGLYSLSSVVTVPSSSLGTQTYICNVNHKPSNTKVDKKVEPKSCDKTHTCPPCPAPDLLGGDSVFLFPPKPKDTLMISRTPEVTCVVVDVSHEDGEVKFNWYVDGVEVHNAKTKPREEQYNSTYRVVSVLTVLHQDWLNGKEYKCKVSNKALPKPIEKTISKAKGQPREPQVYTLPPSRDELTKNQVSLTCLVKGFYPSDIAVEWESNGQPENNYKTTPPVLDSDGSFFLYSKLTVDKSRWQQGNVFSCSVMHEALHNHYTQESLSLSP
light: DIQMTQSPSSLSASVGDRVTITCRASQDISSYLNWYQQKPGKAPKLLIYYTSRLHSGVPSRFSGSGSGTDFTFTISSLQPEDIATYYCQQGNTLPYTFGQGTKVEIK
notes: as for B1
In the case of B3, in the assay with FcγRIIb [1], the “KD(IIaR)/KD(IIb)” value was 18.2. The Kd with FcγRIIb [2] was 130 nM; with FcγRIIa type R, 2300 nM; with FcγRIIIa type V it was 66000 nM; with FcγRIIa type H it was 30000 nM; in the assay with FcγRIa it was 11 nM. Besides, the “KD(IIb) … of altered polypeptide” value with FcγRIIb [3] worked out at 24.5 fold. Besides, in the assay with FcγRIIb [4], the “KD(IIaH)/KD(IIb)” value was found to be 238.

B4: IL6R-BP185/IL6R-L (antibody, human IgG1)
heavy: QVQLQESGPGLVKPSETLSLTCAVSGHSISHDHAWSWVRQPPGEGLEWIGFISYSGITNYNPSLQGRVTISRDNSKNTLYLQMNSLRAEDTAVYYCARSLARTTAMDYWGEGTLVTVSSASTKGPSVFPLAPSSKSTSGGTAALGCLVKDYFPEPVTVSWNSGALTSGVHTFPAVLQSSGLYSLSSVVTVPSSSLGTQTYICNVNHKPSNTKVDKKVEPKSCDKTHTCPPCPAPDYLGDDSVFLFPPKPKDTLMISRTPEVTCVVVDVSHEDGEVKFNWYVDGVEVHNAKTKPREEQYNSTYRVVSVLTVLHQDWLNGKEYKCKVSNAALPKPIEKTISKAKGQPREPQVYTLPPSRDELTKNQVSLTCLVKGFYPSDIAVEWESNGQPENNYKTTPPVLDSDGSFFLYSKLTVDKSRWQQGNVFSCSVMHEALHNHYTQESLSLSP
light: DIQMTQSPSSLSASVGDRVTITCRASQDISSYLNWYQQKPGKAPKLLIYYTSRLHSGVPSRFSGSGSGTDFTFTISSLQPEDIATYYCQQGNTLPYTFGQGTKVEIK
notes: as for B1
Take B4: in the assay with FcγRIIb [1], the “KD(IIaR)/KD(IIb)” value worked out at 12.6. Moreover, the Kd with FcγRIIb [2] stood at 69 nM; with FcγRIIa type R it was 880 nM; with FcγRIIIa type V, 36000 nM; with FcγRIa it was 63 nM. In addition, the “KD(IIb) … of altered polypeptide” value in the assay with FcγRIIb [3] came to 44.5 fold. In addition, the “KD(IIaH)/KD(IIb)” value with FcγRIIb [4] was determined as 105.

B5: IL6R-BP183/IL6R-L (antibody, human IgG1)
heavy: QVQLQESGPGLVKPSETLSLTCAVSGHSISHDHAWSWVRQPPGEGLEWIGFISYSGITNYNPSLQGRVTISRDNSKNTLYLQMNSLRAEDTAVYYCARSLARTTAMDYWGEGTLVTVSSASTKGPSVFPLAPSSKSTSGGTAALGCLVKDYFPEPVTVSWNSGALTSGVHTFPAVLQSSGLYSLSSVVTVPSSSLGTQTYICNVNHKPSNTKVDKKVEPKSCDKTHTCPPCPAPDYLGGDSVFLFPPKPKDTLMISRTPEVTCVVVDVSHEDGEVKFNWYVDGVEVHNAKTKPREEQYNSTYRVVSVLTVLHQDWLNGKEYKCKVSNAALPKPIEKTISKAKGQPREPQVYTLPPSRDELTKNQVSLTCLVKGFYPSDIAVEWESNGQPENNYKTTPPVLDSDGSFFLYSKLTVDKSRWQQGNVFSCSVMHEALHNHYTQESLSLSP
light: DIQMTQSPSSLSASVGDRVTITCRASQDISSYLNWYQQKPGKAPKLLIYYTSRLHSGVPSRFSGSGSGTDFTFTISSLQPEDIATYYCQQGNTLPYTFGQGTKVEIK
notes: as for B1
On to B5, for which the “KD(IIaR)/KD(IIb)” value with FcγRIIb [1] was 10.7. The Kd with FcγRIIb [2] was found to be 240 nM; in the assay with FcγRIIa type R it was 2600 nM; in the assay with FcγRIIIa type V it was 56000 nM; in the assay with FcγRIIa type H, 15000 nM; with FcγRIa, 17 nM. Also, in the assay with FcγRIIb [3], the “KD(IIb) … of altered polypeptide” value was 12.9 fold. Besides, the “KD(IIaH)/KD(IIb)” value in the assay with FcγRIIb [4] came to 62.5.

B6: IL6R-BP187/IL6R-L (antibody, human IgG1)
heavy: QVQLQESGPGLVKPSETLSLTCAVSGHSISHDHAWSWVRQPPGEGLEWIGFISYSGITNYNPSLQGRVTISRDNSKNTLYLQMNSLRAEDTAVYYCARSLARTTAMDYWGEGTLVTVSSASTKGPSVFPLAPSSKSTSGGTAALGCLVKDYFPEPVTVSWNSGALTSGVHTFPAVLQSSGLYSLSSVVTVPSSSLGTQTYICNVNHKPSNTKVDKKVEPKSCDKTHTCPPCPAPEYLGGDSVFLFPPKPKDTLMISRTPEVTCVVVDVSHEDGEVKFNWYVDGVEVHNAKTKPREEQYNSTYRVVSVLTVLHQDWLNGKEYKCKVSNAALPKPIEKTISKAKGQPREPQVYTLPPSRDELTKNQVSLTCLVKGFYPSDIAVEWESNGQPENNYKTTPPVLDSDGSFFLYSKLTVDKSRWQQGNVFSCSVMHEALHNHYTQESLSLSP
light: DIQMTQSPSSLSASVGDRVTITCRASQDISSYLNWYQQKPGKAPKLLIYYTSRLHSGVPSRFSGSGSGTDFTFTISSLQPEDIATYYCQQGNTLPYTFGQGTKVEIK
notes: as for B1
For B6, the “KD(IIaR)/KD(IIb)” value in the assay with FcγRIIb [1] came out at 9.7. In addition, the equilibrium dissociation constant (Kd) with FcγRIIb [2] was determined as 290 nM; with FcγRIIa type R, 2800 nM; in the assay with FcγRIIIa type V, 56000 nM; in the assay with FcγRIIa type H it was 18000 nM; in the assay with FcγRIa it was 25 nM. Also, in the assay with FcγRIIb [3], the “KD(IIb) … of altered polypeptide” value was determined as 10.7 fold. In the assay with FcγRIIb [4], the “KD(IIaH)/KD(IIb)” value is 62.3.
